According to patent US20220088193A1 (AGONOX, published 2022):
Where a chain is given by its changes, count along the chain named. Each block holds one binder with its values, some of them ahead of it.

Tests used:
[1] = target: T1, human CD55 (human, UniProt P08174 35-353, limits assumed); test: ELISA on human CD55, HRP-anti-mouse secondary, A450; left panel 'Binding to human CD55 by ELISA', EC50 table below the graph
T1 construct: also called Decay-Accelerating Factor; DAF
T1 sequence (looked up): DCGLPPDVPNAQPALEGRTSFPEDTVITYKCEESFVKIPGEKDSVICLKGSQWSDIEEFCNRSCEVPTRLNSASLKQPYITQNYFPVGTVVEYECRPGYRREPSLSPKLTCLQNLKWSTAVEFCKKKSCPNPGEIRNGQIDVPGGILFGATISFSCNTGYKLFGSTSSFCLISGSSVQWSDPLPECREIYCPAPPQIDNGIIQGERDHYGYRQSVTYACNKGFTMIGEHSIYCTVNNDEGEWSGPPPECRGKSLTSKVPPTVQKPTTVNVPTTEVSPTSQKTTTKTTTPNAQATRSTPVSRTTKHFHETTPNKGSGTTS
Text: (§1) EC₅₀ values were obtained by fitting to a sigmoid non-linear equation, using PRISM. These human antibodies contained mouse IgG2A Fc domains for use in in vivo mouse tumor models and were detected by HRP-anti-mouse secondary antibodies.
as §1

[2] = target: T2, mouse CD55 (mouse, UniProt Q61475 35-362, limits assumed); test: ELISA on mouse CD55, HRP-anti-mouse secondary, A450; right panel 'Binding to mouse CD55 by ELISA', EC50 table below the graph
T2 sequence (looked up): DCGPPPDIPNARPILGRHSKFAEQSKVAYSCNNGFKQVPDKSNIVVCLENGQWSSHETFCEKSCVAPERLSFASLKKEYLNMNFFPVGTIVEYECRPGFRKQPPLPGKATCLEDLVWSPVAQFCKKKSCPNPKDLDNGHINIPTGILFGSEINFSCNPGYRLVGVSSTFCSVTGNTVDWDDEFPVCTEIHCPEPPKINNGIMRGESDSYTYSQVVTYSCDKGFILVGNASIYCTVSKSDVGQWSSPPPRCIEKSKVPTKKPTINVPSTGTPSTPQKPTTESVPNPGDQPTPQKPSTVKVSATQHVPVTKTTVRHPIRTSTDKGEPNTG
Text: as §1, §1

[3] = target: T1, human CD55; test: library screen, species specificity summary
[4] = target: T3, Plate-bound CD55 (Homo sapiens (Human), UniProt P08174 35-353); test: competition ELISA on plate-bound CD55, streptavidin-HRP, A450; competitor antibody: None
T3 sequence: T1 sequence (looked up)
Experimental: (§2) FIG. 3: Competition ELISA data for comparing the epitopes of the mouse+human CD55 binding antibodies.
(§3) Comparison of the epitopes of the mouse+human CD55-binding antibodies was performed by competition ELISA.

[5] = target: T3, Plate-bound CD55; test: competition ELISA on plate-bound CD55, streptavidin-HRP, A450; plate pre-incubated with unlabeled competitor P5-4 at 1.0 ug/ml
Experimental: as §2, §3

[6] = target: T3, Plate-bound CD55; test: competition ELISA on plate-bound CD55, streptavidin-HRP, A450; plate pre-incubated with unlabeled competitor P5-1J at 1.0 ug/ml
Experimental: as §2, §3

[7] = target: T3, Plate-bound CD55; test: competition ELISA; plate-bound CD55 pre-incubated with the unlabeled competitor P5-1J, washed, biotinylated P5-1J titrated, Streptavidin-HRP
Experimental: as §2, §3

[8] = target: T3, Plate-bound CD55; test: competition ELISA on plate-bound CD55, streptavidin-HRP, A450; plate pre-incubated with unlabeled competitor P5-2-2A at 1.0 ug/ml
Experimental: as §2, §3

[9] = target: T3, Plate-bound CD55; test: competition ELISA; plate-bound CD55 pre-incubated with the unlabeled competitor P5-2-2A, washed, biotinylated P5-1J titrated, Streptavidin-HRP
Experimental: as §2, §3

[10] = target: T3, Plate-bound CD55; test: competition ELISA on plate-bound CD55, streptavidin-HRP, A450; plate pre-incubated with control competitor mIgG2A at 1.0 ug/ml (curve lies on that of None)
Experimental: as §2, §3

[11] = target: T2, mouse CD55; test: ELISA on mouse CD55, HRP-anti-mouse secondary, A450; right panel 'Binding to mouse CD55 by ELISA'
Text: as §1, §1

- EC50 [1]: 4.27 ng/mL
- EC50 [2]: 3.46 ng/mL
B1: P5-1 with mouse IgG2A Fc domains (antibody, V domains shown)
VH: EVQLVESGGGLVQPGGSLRLSCAASGFTFSSYYIHWVRQAPGKGLEWVAAISSSSGSTYYADSVKGRFTISADTSKNTAYLQMNSLRAEDTAVYYCARERYFYGDFVFDYWGQGTLVTVSS
VL: DIQMTQSPSSLSASVGDRVTITCRASQSVSSAVAWYQQKPGKAPKLLIYSASSLYSGVPSRFSGSRSGTDFTLTISSLQPEDFATYYCQQYYSSPLTFGQGTKVEIKR
notes: not shown: mouse IgG2A Fc domain

- binding result [3]: binds
B2: P5-3 (antibody, V domains shown)
VH: EVQLVESGGGLVQPGGSLRLSCAASGFTFSSYYIHWVRQAPGKGLEWVAAISSSSGSTYYADSVKGRFTISADTSKNTAYLQMNSLRAEDTAVYYCAREDWHRYERRFYEGFDYWGQGTLVTVSS
VL: B1 VL

- EC50 [4]: 2.13 ng/mL
- EC50 [5]: 24.1 ng/mL
- EC50 [6]: 108 ng/mL
- fold shift in EC50 [7]: 100 fold
- EC50 [8]: 21.4 ng/mL
- fold shift in EC50 [9]: 20 fold
- EC50 [10]: 1.96 ng/mL
B3: P5-1J (antibody, V domains shown)
VH: B1 VH with S31H, Y32H, S53T, S54G, S55G, S57T, Y103N, V107I, F108Y
VL: B1 VL with S94T
notes: also called biotinylated P5-1J; unlabeled P5-1J

- EC50 (read off the curve) [11]: ~6 ng/mL
- EC50 [1]: 4.72 ng/mL
B4: P5-2-2A with mouse IgG2A Fc domains (antibody, V domains shown)
VH: B1 VH with R100A, Y101R, Y103H, V107I, F108L
VL: B1 VL with S93I, S94T
notes: as for B1

- EC50 [1]: 3.68 ng/mL
- EC50 [2]: 22.7 ng/mL
B5: P5-4 with mouse IgG2A Fc domains (antibody, V domains shown)
VH: B1 VH with R100D, F102Y, Y103W
VL: B1 VL
notes: as for B1

- EC50 [1]: 4.07 ng/mL
- EC50 [2]: 3.21 ng/mL
B6: P5-1J with mouse IgG2A Fc domains (antibody, V domains shown)
VH: B1 VH with S31H, Y32H, S53T, S54G, S55G, S57T, Y103N, V107I, F108Y
VL: B1 VL with S94T
notes: as for B1

- binding result [3]: binds
B7: P5-2 (antibody, V domains shown)
VH: B1 VH with R100V, Y101R, F102I, Y103H, F108L
VL: B1 VL
notes: also called parent Ab P5-2
